Source: ChEMBL document CHEMBL1142886, “Substrate specificity analysis and inhibitor design of homoisocitrate dehydrogenase” (Bioorg Med Chem, 2007)

Experiments:
[1] = substrate: C[C@H](C(=O)O)[C@@H](O)C(=O)O; experiment: (§1) Activity of recombinant Saccharomyces cerevisiae homoisocitrate dehydrogenase expressed in Escherichia coli Rosetta cells
[2] = substrate: C=C[C@H](C(=O)O)[C@@H](O)C(=O)O; experiment: as §1
[3] = substrate: O=C(O)CCC[C@H](C(=O)O)[C@@H](O)C(=O)O; experiment: as §1
[4] = substrate: O=C(O)CCCC[C@H](C(=O)O)[C@@H](O)C(=O)O; experiment: as §1
[5] = substrate: O=C(O)[C@@H](CCO)[C@@H](O)C(=O)O; experiment: as §1
[6] = substrate: CCC[C@H](C(=O)O)[C@@H](O)C(=O)O; experiment: as §1
[7] = substrate: O=C(O)CC[C@H](C(=O)O)[C@@H](O)C(=O)O; experiment: as §1
[8] = substrate: CC[C@H](C(=O)O)[C@@H](O)C(=O)O; experiment: as §1
[9] = substrate: O=C(O)[C@@H](CCCO)[C@@H](O)C(=O)O; experiment: as §1
[10] = substrate: CCCCC[C@H](C(=O)O)[C@@H](O)C(=O)O; experiment: as §1
[11] = substrate: C=CCCC[C@H](C(=O)O)[C@@H](O)C(=O)O; experiment: as §1
[12] = substrate: C=CC[C@H](C(=O)O)[C@@H](O)C(=O)O; experiment: as §1
[13] = substrate: O=C(O)[C@@H](CCCCO)[C@@H](O)C(=O)O; experiment: as §1
[14] = substrate: C[C@H](C(=O)O)[C@@H](O)C(=O)O; experiment: (§2) Ratio of kcat/km of recombinant Saccharomyces cerevisiae homoisocitrate dehydrogenase expressed in Escherichia coli Rosetta cells above 10 mM
[15] = substrate: C=C[C@H](C(=O)O)[C@@H](O)C(=O)O; experiment: as §2
[16] = substrate: O=C(O)CCC[C@H](C(=O)O)[C@@H](O)C(=O)O; experiment: as §2
[17] = substrate: O=C(O)CCCC[C@H](C(=O)O)[C@@H](O)C(=O)O; experiment: as §2
[18] = substrate: O=C(O)[C@@H](CCO)[C@@H](O)C(=O)O; experiment: as §2
[19] = substrate: CCC[C@H](C(=O)O)[C@@H](O)C(=O)O; experiment: as §2
[20] = substrate: O=C(O)CC[C@H](C(=O)O)[C@@H](O)C(=O)O; experiment: as §2
[21] = substrate: CC[C@H](C(=O)O)[C@@H](O)C(=O)O; experiment: as §2
[22] = substrate: O=C(O)[C@@H](CCCO)[C@@H](O)C(=O)O; experiment: as §2
[23] = substrate: CCCCC[C@H](C(=O)O)[C@@H](O)C(=O)O; experiment: as §2
[24] = substrate: C=CCCC[C@H](C(=O)O)[C@@H](O)C(=O)O; experiment: as §2
[25] = substrate: C=CC[C@H](C(=O)O)[C@@H](O)C(=O)O; experiment: as §2
[26] = substrate: O=C(O)[C@@H](CCCCO)[C@@H](O)C(=O)O; experiment: as §2

B1: Homoisocitrate dehydrogenase, mitochondrial (Saccharomyces cerevisiae S288c), P40495 (protein)
chain: MFRSVATRLSACRGLASNAARKSLTIGLIPGDGIGKEVIPAGKQVLENLNSKHGLSFNFIDLYAGFQTFQETGKALPDETVKVLKEQCQGALFGAVQSPTTKVEGYSSPIVALRREMGLFANVRPVKSVEGEKGKPIDMVIVRENTEDLYIKIEKTYIDKATGTRVADATKRISEIATRRIATIALDIALKRLQTRGQATLTVTHKSNVLSQSDGLFREICKEVYESNKDKYGQIKYNEQIVDSMVYRLFREPQCFDVIVAPNLYGDILSDGAAALVGSLGVVPSANVGPEIVIGEPCHGSAPDIAGKGIANPIATIRSTALMLEFLGHNEAAQDIYKAVDANLREGSIKTPDLGGKASTQQVVDDVLSRL
Q: For B1, which Km [1] is on record?
A: 5700 µM

Q: And the kcat [1]?
A: 0.32 s⁻¹

Q: What about the Km [2] of the same protein?
A: 3400 µM

Q: And the kcat [2]?
A: 0.5 s⁻¹

Q: What about the Km [3] of the same protein?
A: 26 µM

Q: What about the kcat [3] of the same protein?
A: 1.6 s⁻¹

Q: And the Km [4]?
A: 170 µM

Q: And the kcat [4]?
A: 3.1 s⁻¹

Q: What about the Km [5] of the same protein?
A: 2100 µM

Q: What about the kcat [5] of the same protein?
A: 0.78 s⁻¹

Q: And the Km [6]?
A: 290 µM

Q: And the kcat [6]?
A: 0.7 s⁻¹

Q: What about the Km [7] of the same protein?
A: 18 µM

Q: And the kcat [7]?
A: 17 s⁻¹

Q: What about the Km [8] of the same protein?
A: 600 µM

Q: And the kcat [8]?
A: 0.61 s⁻¹

Q: And the Km [9]?
A: 580 µM

Q: What about the kcat [9] of the same protein?
A: 4.8 s⁻¹

Q: What about the Km [10] of the same protein?
A: 7200 µM

Q: And the kcat [10]?
A: 0.11 s⁻¹

Q: What about the Km [11] of the same protein?
A: 9400 µM

Q: And the kcat [11]?
A: 0.14 s⁻¹

Q: What about the Km [12] of the same protein?
A: 410 µM

Q: And the kcat [12]?
A: 0.34 s⁻¹

Q: And the Km [13]?
A: 440 µM

Q: And the kcat [13]?
A: 2.1 s⁻¹

Q: What about the kcat/Km [14] of the same protein?
A: 56 M⁻¹ s⁻¹

Q: What about the kcat/Km [15] of the same protein?
A: 150 M⁻¹ s⁻¹

Q: What about the kcat/Km [16] of the same protein?
A: 62000 M⁻¹ s⁻¹

Q: What about the kcat/Km [17] of the same protein?
A: 18000 M⁻¹ s⁻¹

Q: And the kcat/Km [18]?
A: 370 M⁻¹ s⁻¹

Q: What about the kcat/Km [19] of the same protein?
A: 2400 M⁻¹ s⁻¹

Q: What about the kcat/Km [20] of the same protein?
A: 940000 M⁻¹ s⁻¹

Q: What about the kcat/Km [21] of the same protein?
A: 1000 M⁻¹ s⁻¹

Q: And the kcat/Km [22]?
A: 8300 M⁻¹ s⁻¹

Q: What about the kcat/Km [23] of the same protein?
A: 15 M⁻¹ s⁻¹

Q: And the kcat/Km [24]?
A: 15 M⁻¹ s⁻¹

Q: What about the kcat/Km [25] of the same protein?
A: 830 M⁻¹ s⁻¹

Q: What about the kcat/Km [26] of the same protein?
A: 4800 M⁻¹ s⁻¹
